One block for each binder: values may come before it.
Target: human IL-12 receptor (IL-12Rβ1 and IL-12Rβ2) on HEK-Blue IL-12 cells (human, UniProt P42701 24-662; Q99665 24-862)
Experiment: cell-based or functional assay

Chain of human IL-12 receptor (IL-12Rβ1 and IL-12Rβ2) on HEK-Blue IL-12 cells (Q99665 24-862, chain 2 of 2, other chains not shown): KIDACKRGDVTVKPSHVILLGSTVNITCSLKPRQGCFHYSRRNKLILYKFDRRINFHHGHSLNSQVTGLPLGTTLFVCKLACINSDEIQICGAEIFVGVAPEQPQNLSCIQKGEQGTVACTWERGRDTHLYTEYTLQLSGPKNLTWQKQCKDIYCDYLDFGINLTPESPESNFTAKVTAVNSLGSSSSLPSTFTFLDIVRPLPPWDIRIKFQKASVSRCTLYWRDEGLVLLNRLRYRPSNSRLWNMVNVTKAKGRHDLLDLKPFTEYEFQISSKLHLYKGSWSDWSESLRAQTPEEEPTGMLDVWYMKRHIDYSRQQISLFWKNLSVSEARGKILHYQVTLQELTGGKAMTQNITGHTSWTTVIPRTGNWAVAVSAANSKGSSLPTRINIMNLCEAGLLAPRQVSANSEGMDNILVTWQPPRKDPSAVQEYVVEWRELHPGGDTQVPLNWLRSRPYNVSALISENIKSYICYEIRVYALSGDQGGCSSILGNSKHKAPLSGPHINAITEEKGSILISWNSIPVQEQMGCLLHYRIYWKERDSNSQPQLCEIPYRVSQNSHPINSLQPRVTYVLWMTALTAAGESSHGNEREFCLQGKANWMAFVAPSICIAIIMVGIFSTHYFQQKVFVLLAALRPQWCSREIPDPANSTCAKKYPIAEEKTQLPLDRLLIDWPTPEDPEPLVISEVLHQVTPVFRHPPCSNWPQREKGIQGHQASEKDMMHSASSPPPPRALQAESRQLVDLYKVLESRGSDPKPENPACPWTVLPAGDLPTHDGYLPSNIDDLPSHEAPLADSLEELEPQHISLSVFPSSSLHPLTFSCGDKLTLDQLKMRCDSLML

B1: DGL441 (bispecific antibody, human IgG1, lambda)
heavy 1: not shown
heavy 2: EVQLVESGGGLVQPGGSLRLSCAASGFTFSTYDMHWVRQATGKGLEWVSLIDTAGDTYYPDSVKGRFTISRENAKNSLYLQMNSLRAGDTAVYYCAREGWGYFDYWGQGALVTVSSASTKGPSVFPLAPSSKSTSGGTAALGCLVKDYFPEPVTVSWNSGALTSGVHTFPAVLQSSGLYSLSSVVTVPSSSLGTQTYICNVNHKPSNTKVDKKVEPKSCDKTHTCPPCPAPEAAGAPSVFLFPPKPKDTLMISRTPEVTCVVVDVSHEDPEVKFNWYVDGVEVHNAKTKPREEQYNSTYRVVSVLTVLHQDWLNGKEYKCKVSNKALPAPIEKTISKAKGQPREPQVCTLPPSRDELTKNQVSLSCAVKGFYPSDIAVEWESNGQPENNYKTTPPVLDSDGSFFLVSKLTVDKSRWQQGNVFSCSVMHEALHNRFTQKSLSLSPG
light: QSALTQPPSVSGSPGQSVTISCTGTSSDVGSYNRVSWYQQPPGTAPKLMIYEVSNRPSGVPDRFSGSKSGNTASLTISGLQAEDEADYYCSLYTGSSTVVFGGGTKVTVLGQPKAAPSVTLFPPSSEELQANKATLVCLISDFYPGAVTVAWKADSSPVKAGVETTTPSKQSNNKYAASSYLSLTPEQWKSHRSYSCQVTHEGSTVEKTVAPTECS
EC50: 4e-11 M (implied)
Max Absorbance: 0.45

B2: DGL448 (bispecific antibody, human IgG1, lambda)
heavy 1: not shown
heavy 2: B1 heavy 2
light: B1 light
EC50: 1e-09 M (implied)
Max Absorbance: 0.39

B3: DGL454 (bispecific antibody, V domains shown)
V domain 1: QVQLQESGGALVQPGGSLRLSCVVSGFTSDYFAIGWFRQAPGKEREGVSCIGSSDGSTIYSDSVKGRFTISRDNAKNTVYLQMNSLKPEDTGVYYCALDRGRRTIIGYACYATMKYWGKGTPVTVEP
V domain 2: QVQLVESGGGLVQPGGSLRLSCAASGFTFEPYDMSWFRQAPGKGPEWVSAIDKGGGAGATYYADSVKGRFTISRDNAKKTLYLQMKSLKPEDTAVYYCAITAGPYSDSTPRVAYRGEGTQVTVEP
EC50: > 100 nM
Max Absorbance: 0.47

B5: DGL504 (bispecific antibody, V domains shown)
V domain 1: EVQLVESGGGLVQAGGSLRLSCAASGLTFRNYAMAWFRQAPGKEREFVAGITWGGGLTHYVDSVKGRFTISRDNGKNTVYLQMNSLKSEDTAVYYCAGKTQGSTWYHLTPDGYDYWGQGTQVTVEP
V domain 2: QVQLVESGGGLVQAGGSLRLSCAASGRTFSSYAMGWFRQAPGKEREFVSAISWSGLSTYYVESVQGRFTISRDNAKNTVYLQMNSLKPEDTAVYYCAASRIYTNYVARSYEYDDWGQGTQVTVEP
EC50: > 100 nM
Max Absorbance: 0.41

B8: DGL478 (bispecific antibody, V domains shown)
V domain 1: QVQLVESGGGLVQAGGSLRLSCAAPGRYAVGWFRQAPGKEYEFVAAITVSGGSKYYEDSVKGRFAISRDNAKNTVYLQMNSLKAEDTAVYYCAARTPKFGSGWYNRRGEYDYWGQGTQVTVEP
V domain 2: QVQLVESGGGLVQAGGSLRLSCAASGRIFSAYRMGWFRQAPGKEREFVAGITWRGQTTYYAASVKGRFTISKDNAKKTVYLQMNSLKPEETAVYYCAVETNGLGRWDRPSEYDYWGQGTQVTVEP
EC50: 4e-09 M (implied)
Max Absorbance: 0.4

B10: DGL464 (bispecific antibody, V domains shown)
V domain 1: QVQLVESGGGLVQAGGSLRLSCAASGRAFSRYSMGWFRQAPGKEREFVAANYWSNGWTDYADTVKGRFSISRDNAKNTVYLQMNSLKPEDTAVYYCAGRSSSIPSADVVGYDYWGQGTQVTVEP
V domain 2: QVQLVESGGGLVQPGGSLRLSCAASGFTFSNYAMSWVRQAPGKGLEWVSAINSDGTSTSYADSVKGQFTISRDNAKNTLYLQMNSLKPEDTAVYYCTKWEGDTDSDYKFKDYWGQGTQVTVEP
EC50: > 100 nM
Max Absorbance: 0.47

B11: DGL445 (bispecific antibody, human IgG1, lambda)
heavy 1: not shown
heavy 2: QVQLVQPGAEVKKPGASVKVSCKASGYTFTGYYMHWVRQAPGQGLEWMGWINPKSGGTNYAQKFQGRVTMTRDTSISTAYMELTRLRSDDTAVYYCARDQGYGDYVLKHWGQGTLVTVSSASTKGPSVFPLAPSSKSTSGGTAALGCLVKDYFPEPVTVSWNSGALTSGVHTFPAVLQSSGLYSLSSVVTVPSSSLGTQTYICNVNHKPSNTKVDKKVEPKSCDKTHTCPPCPAPEAAGAPSVFLFPPKPKDTLMISRTPEVTCVVVDVSHEDPEVKFNWYVDGVEVHNAKTKPREEQYNSTYRVVSVLTVLHQDWLNGKEYKCKVSNKALPAPIEKTISKAKGQPREPQVCTLPPSRDELTKNQVSLSCAVKGFYPSDIAVEWESNGQPENNYKTTPPVLDSDGSFFLVSKLTVDKSRWQQGNVFSCSVMHEALHNRFTQKSLSLSPG
light: SYVLTQPPSVSVAPGQTARITCGGDNIGSKSVHWYQQKPGQAPVPVVYDDSDRPSGIPERFSGSNSGNTATLTISRVEAGDEADYYCQVWDSSSDHVVFGGGTKLTVLGQPKAAPSVTLFPPSSEELQANKATLVCLISDFYPGAVTVAWKADSSPVKAGVETTTPSKQSNNKYAASSYLSLTPEQWKSHRSYSCQVTHEGSTVEKTVAPTECS
EC50: > 100 nM
Max Absorbance: 0.42

Next, values leading:

EC50: > 100 nM
Max Absorbance: 0.42
B4: DGL533 (bispecific antibody, V domains shown)
V domain 1: EVQLVESGGGLVQPGGSLTLSCTASGFRFSDRSMGWYRQAPGKQRELVAAITVGGSTNYADSVKGRFTISRDNAKNTVYLQMNSLKPEDTALYYCNRRYPPDDYWGQGTQVTVEP
V domain 2: B5 V domain 2

EC50: > 100 nM
Max Absorbance: 0.43
B6: DGL575 (bispecific antibody, V domains shown)
V domain 1: QVQLVESGGGLVQAGGSLRLSCAASRSISSFNEMAWYRQAPGEQRELVATIVSTVGFTNYADSVKGRFTISRDNAKNTVYLQMNSLKAEDTAVYYCNARRISTDYWGQGTQVTVEP
V domain 2: QVQLQESGPGLVKPSQTLSLTCTVSGGSITTNYYYWSWIRQPPGKGLEWMGAIAYSGSTYYSPSLKSRTSISRDTSKNQFTLQLSSVTPEDTAVYYCASGINFYSNYPTLNEYDYWGQGTQVTVEP

EC50: > 100 nM
Max Absorbance: 0.41
B7: DGL574 (bispecific antibody, V domains shown)
V domain 1: B6 V domain 1
V domain 2: QVQLVESGGGLVQAGGSLRLSCAASGRTFSRYRMGWFRQAPGKEREFVAAITKSGATTYDADSVKGRFTISRDNAKNTLYLQMNSLKPEDTAVYYCAASYHSNWWPKNADEYAYWGQGTQVTVEP

EC50: > 100 nM
Max Absorbance: 0.4
B9: DGL552 (bispecific antibody, V domains shown)
V domain 1: QVQLVESGGGLVQAGGSLRLSCAASGRTFGTYAMGWFRQAPGKERDFVARISNSGAFTHYADSVKGRFTISRDNAKNTVYLHMNSLENGDTAAYYCVATRGTNSAYYTRSTMYEYWGQGTQVTVEP
V domain 2: B8 V domain 2
